In publication PMC5224519, “Developing the IVIG biomimetic, Hexa-Fc, for drug and vaccine applications” (Scientific Reports, 2015):

Assays:
[1] = target: soluble recombinant human DC-SIGN tetramers (human) (UniProt Q9NNX6); experiment: ELISA; binding to human DC-SIGN of Igs untreated or treated with PNGase F, Endo S or Endo H (Figure S8); format not told in the text shown
hIgG1-Fc-CL309/310CH-TP = experiment: non-reducing SDS-PAGE (blot and Coomassie); 5 μg purified Fc on 4-12% bis-Tris gradient gels, non-reducing or reducing; blot with goat anti-human IgG or Coomassie blue
[2] = target: soluble recombinant human DC-SIGN tetramers (human) (UniProt Q9NNX6); experiment: SPR; multichannel SPR (ProteOn XPR36); DC-SIGN or SIGNR1 amine-coupled on GLM chips; Ig preparations or gp120 as analytes, 25°C, 25 μl per minute; 1:1 Langmuir model
[3] = target: recombinant SIGNR1 (mouse) (UniProt Q8CJ91); experiment: as above
[4] = target: T1, soluble recombinant human DC-SIGN tetramers (human, UniProt Q9NNX6 1-404); experiment: as above; settings: both partners purified
T1 construct: human DC-SIGN, soluble recombinant; also called dendritic cell-specific intercellular adhesion molecule-3-grabbing non-integrin
T1 sequence (looked up): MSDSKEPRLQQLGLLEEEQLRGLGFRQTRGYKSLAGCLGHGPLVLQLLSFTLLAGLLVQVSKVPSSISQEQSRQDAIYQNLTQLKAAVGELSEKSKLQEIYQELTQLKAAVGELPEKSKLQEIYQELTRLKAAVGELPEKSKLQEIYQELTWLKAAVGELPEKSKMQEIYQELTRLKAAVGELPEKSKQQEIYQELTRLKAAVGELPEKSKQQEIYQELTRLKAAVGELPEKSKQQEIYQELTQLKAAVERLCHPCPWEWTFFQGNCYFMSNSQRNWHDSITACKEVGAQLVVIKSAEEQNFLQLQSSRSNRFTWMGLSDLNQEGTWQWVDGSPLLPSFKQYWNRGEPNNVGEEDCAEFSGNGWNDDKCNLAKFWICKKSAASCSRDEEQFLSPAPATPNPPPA

recombinant SIGNR1 = target: T2, recombinant SIGNR1 (mouse, UniProt Q8CJ91 1-325); experiment: as above; settings: both partners purified
T2 construct: mouse SIGNR1, soluble recombinant; also called the mouse orthologue of the human DC-SIGN; source: bought: R&D systems
T2 sequence (looked up): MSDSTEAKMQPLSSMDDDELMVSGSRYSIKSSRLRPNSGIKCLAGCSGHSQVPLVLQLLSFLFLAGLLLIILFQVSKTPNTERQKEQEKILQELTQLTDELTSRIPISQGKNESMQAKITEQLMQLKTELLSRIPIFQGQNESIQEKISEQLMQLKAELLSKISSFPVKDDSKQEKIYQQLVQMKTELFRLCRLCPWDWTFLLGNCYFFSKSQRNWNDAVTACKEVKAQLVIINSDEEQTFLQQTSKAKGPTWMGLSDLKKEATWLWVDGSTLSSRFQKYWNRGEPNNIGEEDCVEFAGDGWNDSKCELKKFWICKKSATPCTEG

PNGase F treated human IgM (antibody)
residual binding [1]: 50%

hIgG1-Fc-CL309/310CH-TP
stoichiometry N (hIgG1-Fc-CL309/310CH-TP): 6

hexameric-Fc (hexa-Fc), hIgG1-Fc-TP-LH309/310CL
Kd [2]: 1260 nM
koff [2]: 0.000839 s⁻¹
kon [2]: 668 M⁻¹ s⁻¹

recombinant HIV gp120 (natural protein)
Kd [3]: 3.91 nM
koff [3]: 9.46e-05 s⁻¹
kon [3]: 27700 M⁻¹ s⁻¹
Kd [2]: 4.39 nM
koff [2]: 0.000158 s⁻¹
kon [2]: 36000 M⁻¹ s⁻¹

B1: CHO cell derived recombinant (hexameric) IgM-Fc (domain or fragment)
chain: IAELPPKVSVFVPPRDGFFGNPRKSKLICQATGFSPRQIQVSWLREGKQVGSGVTTDQVQAEAKESGPTTYKVTSTLTIKESDWLGQSMFTCRVDHRGLTFQQNASSMCVPDQDTAIRVFAIPPSFASIFLTKSTKLTCLVTDLTTYDSVTISWTRQNGEAVKTHTNISESHPNATFSAVGEASICEDDWNSGERFTCTVTHTDLPSPLKQTISRPKGVALHRPDVYLLPPAREQLNLRESATITCLVTGFSPADVFVQWMQRGQPLSPEKYVTSAPMPEPQAPGRYFAHSILTVSEEEWNTGETYTCVVAHEALPNRVTERTVDKSTGKPTLYNVSLVMSDTAGTCY
modifications: CHO-cell N-glycans; disulfide-linked hexamer. Limits taken as Cmu2-Cmu4 plus tailpiece; needs the secreted isoform (453 aa), not the 474-aa membrane form displayed as P01871
Kd [4]: 260 nM
Kd (recombinant SIGNR1): 2200 nM
